Experiment: yeast display, Sf9 membrane polyspecificity reagent, FACS + sequencing; frameworks hold sequencing errors
In short: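 Synthetic nanobody libraries on Saccharomyces cerevisiae BJ5465 were galactose-induced for 36–48 hours, stained 1 hour at 4 °C with 10% biotinylated, detergent-solubilized Sf9 membrane reagent and enriched on streptavidin microbeads. FACS then separated cells into low and high (top ~1%) gates by anti-HA (expression) and streptavidin (reagent binding) fluorescence. Genes were colony-PCR amplified, MiSeq 2 × 250 sequenced and CDR-length filtered. A clone's polyreactivity label is that of its gate of origin.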

Sequence	polyreactivity (PSR sort gate)
QVQLVESGGGLVQAGGSLRLSCAASGRTFRRYAMGWYRQAPGKEREFVAAIRYSGGITYYADSVKGRFTISRDNAKNTVYLQMNSLKPEDTAVFYCAAYGWGNRWYSRFDYWGQGTQVTVSS	high polyreactivity
QVQLVESGGGLVQAGGSLRLSCAASGRTFRRYAMGWYRQAPGKERELVAAISKSGGRTYYADSVKGRFTISRDNAKNTVYLQMNSLKPEDTAVYYCAADHIQTAGGDYWGQGTQVTVSS	high polyreactivity
QVQLVESGGGLVQAGGSLRLSCAASGRTFRRYAMGWYRQAPGKEREWVAAISRTGSTNNYADSVKGRFTISRDNAKKTVYLQLNSLKPEDTAVYDCNGQLILGYGYDYWGQGTQVTVSS	high polyreactivity
QVQLVESGGGLVQAGGSLRLSCAASGRTFRRYTMGWYRQAPGKEREFVAGITSSAGNTHYADSVKGRFTISRYNAKNTVYLQMNSLKPEDTAVYYCNAVYYHGSSQYYGGTYGRYYWGQGTQVTVSS	high polyreactivity
QVQLVESGGGLVQAGGSLRLSCAASGRTFRRYTMGWYRQAPGKERELVAAITSGGRTNYADSVKGRFTISRDNAKNTVYLQMNSLKPEDTAVYYCNAQNEIWRVTFSPFDRWGYDYWGQGTQVTVSS	low polyreactivity
QVQLVESGGGLVQAGGSLRLSCAASGRTFRRYTMGWYRQAPGKERELVATISSGGSTYADSVKGRFTISRDNAKNTVYLQMNSLKPEDTAVYYCAATAIYPSAWRMDYWGQGTQVTVSS	high polyreactivity
QVQLVESGGGLVQAGGSLRLSCAASGRTFRSDNALGWYRQPPGKERELVAAISQGGGTYYADSVKGRFTISRDNAKKTVYLQMNSLKPEDTAVYYCARDAYYADPSLWYYTYDYWGQGTQVTVSS	low polyreactivity
QVQLVESGGGLVQAGGSLRLSCAASGRTFRSNAMGWYRQAPGKERELVAAIRNSDGSTNYADSVKGRFTISRDNAKNTVYLQMNSLKPEDTAVYYCAASSTVGRITRILYYYWGQGTQVTVSS	high polyreactivity
QVQLVESGGGLVQAGGSLRLSCAASGRTFRSNGMGWYRQAPGKERQLVATISEGGGSTYYADSVKGRFTISRDNAKNTVYLQMNSLKPEDTAVYYCAATVYPSVYGENHYGYWGQGTQVTVSS	high polyreactivity
QVQLVESGGGLVQAGGSLRLSCAASGRTFRSNVMGWYRPAPGNERELVASITWSGGTTYYADSVKGRFTISRDNAKNTVYLQMNSLKPEDTAVYYCNAADERSQGWVGYDNWGQCTQVTVSS	low polyreactivity
QVQLVESGGGLVQAGGSLRLSCAASGRTFRSYAMGWYRQAPGKERELVAAIRRGGSTNYADSVKGRFTISRDNAKNTVYLQMNSLKPEDTAVYYCNARQTVRGPTDGRIAVWFDYWGQGTQVTVSS	high polyreactivity
QVQLVESGGGLVQAGGSLRLSCAASGRTFRSYAMGWYRQAPGKERELVAAISRRGGTTYYADSVKGRFTISRDNAKNTVYLQMNSLKPEDTAVYYCAATSYTYVLSPYRGDYWGQGTQVTVSS	high polyreactivity
QVQLVESGGGLVQAGGSLRLSCAASGRTFRSYAMGWYRQAPGKERELVASITSSGRTNYADSVKGRFTISRDNAKNTVYLQMNSLKPEDTAVYYCAAVRYYDYLSSWRYDYWGQGTQVTVSS	low polyreactivity
QVQLVESGGGLVQAGGSLRLSCAASGRTFRSYTMGWYRQAPGKERELVAAIRTSSGSTYYADSVKGRFTISRDNAKNTVYLQMNSLKPEDTAVYYCAKTLLYPWFRTVAVDYWGQGTQVTVSS	low polyreactivity
QVQLVESGGGLVQAGGSLRLSCAASGRTFRTYTMGWYRPAPGKERELVAAISKRGSSTYYADSVKGRFTISRDNAKNTVYLQMNSLKQEDTAVYYCAARSWLSNSPYGYWGQGTQVTVSS	high polyreactivity
QVQLVESGGGLVQAGGSLRLSCAASGRTFRTYTMGWYRQAHGKERELVAAITSTGSTYYADSVKGRFTISRDNAMNTVYLQMNSLKPEDTAVYYCNVGRRLRPYRCTRPNLEYYYWGQGTQVTVSS	high polyreactivity
QVQLVESGGGLVQAGGSLRLSCAASGRTFRTYTMGWYRQAPGKEREFGAAITSSGASTYYADSVKGRFTISRDNAKNTVYLPMNSLKPEETAVYYCAARYGRRLVWVPALLYDYWGQGTQVTVSS	high polyreactivity
QVQLVESGGGLVQAGGSLRLSCAASGRTFRVNSMGWYRPAPGKDRELVATIRWTGGSTYYADSVKGRFTISRDNAKNTVYLQMNSLKPEDTAVYYCAARIAVYHRGIGGYWGQGTQVTVSS	high polyreactivity
QVQLVESGGGLVQAGGSLRLSCAASGRTFRVYAMGWYRQAPGKERELVAAIRRSGGSTYYADSVKGRFTISRDNAKNTVYLQMNSLKPEDTAVYYCAAYFYYWGSTFVRYEYWGLGTQVTVSS	high polyreactivity
QVQLVESGGGLVQAGGSLRLSCAASGRTFRVYAMGWYRQAPGKERELVAAISGRGGSTYYADSVKGRFSISRDNAKNTVYFQMNSLKPEVTAVYYCAKSNPYLRLCEGNYWGQGTQVTVSS	high polyreactivity
QVQLVESGGGLVQAGGSLRLSCAASGRTFRVYARGWYRQAPGKERELVATITSSGGSTYYADSVKGRFTISRDNAKNTVYLQMNSLKPEDTAVYYCNVSVYYNYDSSYYYWGQGTQVTVSS	low polyreactivity
QVQLVESGGGLVQAGGSLRLSCAASGRTFRWNAMGWSRQAPGKERELVASISSGGRTNYADSVKGRFTLSRDNAKNTVYLQMNSLKPEDTAVYYCAKRVSWPQLYDYWGQGTQVTVSS	high polyreactivity
QVQLVESGGGLVQAGGSLRLSCAASGRTFRWNAMGWYRQAPGKERELVAAISSGGSTYYADSVKGRFTISRDNAKNTVYLQMNSLKPEDTAVYYCAKSSFKYRWSYPVISMDYWGQGTQVTVSS	high polyreactivity
QVQLVESGGGLVQAGGSLRLSCAASGRTFRWNAMVWYRQEPGKERELVARITSGGRTSYADSVKGRFTISRDNAKNTVYLQMNSLKPEDTAVYYCAARSIGYHWGYDYWGQGTQVTVSS	high polyreactivity
QVQLVESGGGLVQAGGSLRLSCAASGRTFRWYAMGWYRPAPAKERELVAAISSRGGSTYYADSVKGRFTISRDNAKNTVFLQMNSLKPEDTAVYYCAAVDNWLTLSDYDYWGQGTQVTVSS	low polyreactivity
QVQLVESGGGLVQAGGSLRLSCAASGRTFRWYAMGWYRQAPGKEMELVAALTFRGGRTYYADSVKGRFTISRDNAKNTVYLQMNSLKPEDTAVYYCNAVTYSSPYRFDYWGQGTQVTVSS	low polyreactivity
QVQLVESGGGLVQAGGSLRLSCAASGRTFRWYAMGWYRQAPGKERELVAAITSGGGTYYADSVKGRFTIARDNAKNTVYLQMNSLKPEDTAVYYCNKLHRDRYDYWGQGTQVTVSS	high polyreactivity
QVQLVESGGGLVQAGGSLRLSCAASGRTFRYNAMGSYRQAPGKERELVAAISGRGSSTYYADSVKGRFTISRDNAKNTVYLQMNSLKPEDTAVYYCAALPASVRRPGWHDYWGQGTQVTVSS	high polyreactivity
QVQLVESGGGLVQAGGSLRLSCAASGRTFRYNAMGWSRQAPGKERELVADITKSGGTTYYADSVKGRFTISRDNAKNTVYLQMNSLKPEDTAVYYCNAYRVVHPWEYDYWGQGTQVTVSS	high polyreactivity
QVQLVESGGGLVQAGGSLRLSCAASGRTFRYNAMGWYRPAPGKERELVAAITKSGGTTYYADSVKGRFTISRDNAKNTVYLQMNSLKPEDTAVYYCNAYRVVHPWEYDYWGQGTQVTVSS	high polyreactivity
